Data on 5 substances can be found in patent US20210130436A1.

The target in test [1] is CD28 (human) (UniProt P10747). As to the kind of experiment: cell-based or functional assay.
Test [2] concerns the target PD-L1 (human) (UniProt Q9NZQ7). As to the kind of experiment: cell-based or functional assay.

WT CD80 ECD-Fc (inert) (Fc fusion), sequence (chain): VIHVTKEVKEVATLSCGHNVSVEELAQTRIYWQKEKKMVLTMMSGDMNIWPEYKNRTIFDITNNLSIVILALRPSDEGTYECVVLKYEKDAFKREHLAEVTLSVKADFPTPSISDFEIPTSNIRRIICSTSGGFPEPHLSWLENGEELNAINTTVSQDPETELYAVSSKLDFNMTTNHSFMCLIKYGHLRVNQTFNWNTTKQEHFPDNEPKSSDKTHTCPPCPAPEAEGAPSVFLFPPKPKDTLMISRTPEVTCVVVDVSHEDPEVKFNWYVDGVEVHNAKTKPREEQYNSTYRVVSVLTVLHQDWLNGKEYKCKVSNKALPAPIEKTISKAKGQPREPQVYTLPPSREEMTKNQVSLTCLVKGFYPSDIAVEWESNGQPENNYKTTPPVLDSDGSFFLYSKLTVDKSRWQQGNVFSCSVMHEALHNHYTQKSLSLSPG
WT CD80 IgV-Fc (inert) (Fc fusion), sequence (chain): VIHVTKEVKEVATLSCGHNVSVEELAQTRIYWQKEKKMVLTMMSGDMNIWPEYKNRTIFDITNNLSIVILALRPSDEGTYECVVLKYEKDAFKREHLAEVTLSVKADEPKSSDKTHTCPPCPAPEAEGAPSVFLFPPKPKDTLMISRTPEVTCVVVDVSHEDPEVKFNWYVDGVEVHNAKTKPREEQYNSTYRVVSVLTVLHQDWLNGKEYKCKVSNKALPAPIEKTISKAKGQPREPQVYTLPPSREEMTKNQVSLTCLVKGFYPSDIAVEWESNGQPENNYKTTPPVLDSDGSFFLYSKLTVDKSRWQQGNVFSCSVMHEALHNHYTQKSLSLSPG
PD-L1 (human), sequence (Q9NZQ7 19-290): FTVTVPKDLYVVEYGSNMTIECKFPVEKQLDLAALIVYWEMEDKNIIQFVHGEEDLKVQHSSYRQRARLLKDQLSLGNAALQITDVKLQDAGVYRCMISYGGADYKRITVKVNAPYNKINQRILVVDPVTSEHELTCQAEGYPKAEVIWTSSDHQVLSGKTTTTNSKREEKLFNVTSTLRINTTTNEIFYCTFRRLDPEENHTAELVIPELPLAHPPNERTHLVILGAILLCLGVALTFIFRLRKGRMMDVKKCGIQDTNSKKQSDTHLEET

In test [1], “WT CD80 ECD-Fc (effector) (from UniProt P33681 35-242) (Fc fusion)” had an IL-2 release, primary T cells; K562/OKT3 (No PD-L1); 1 nM of 11400; an IL-2 release, primary T cells; K562/OKT3 (No PD-L1); 10 nM of 20200; an IL-2 release, primary T cells; K562/OKT3 (No PD-L1); 100 nM of 23100. Besides, in test [2], the IL-2 release, primary T cells; K562/OKT3/PD-L1; 1 nM amounted to 507; the IL-2 release, primary T cells; K562/OKT3/PD-L1; 10 nM stood at 3110; the IL-2 release, primary T cells; K562/OKT3/PD-L1; 100 nM stood at 8390.

With WT CD80 ECD-Fc (inert) (Fc fusion), in test [1], the IL-2-luciferase RLU, Jurkat + CHO/OKT3/PD-L1 aAPC, 0.6 nM worked out at 518 RLU; the IL-2-luciferase RLU, Jurkat + CHO/OKT3/PD-L1 aAPC, 1.9 nM came out at 474 RLU; the IL-2-luciferase RLU, Jurkat + CHO/OKT3/PD-L1 aAPC, 5.6 nM turned out to be 505 RLU; the IL-2-luciferase RLU, Jurkat + CHO/OKT3/PD-L1 aAPC, 16.7 nM turned out to be 462 RLU. Besides, in test [1], the IL-2-luciferase RLU, Jurkat + CHO/OKT3 aAPC (no PD-L1), 5.6 nM was found to be 436 RLU; the IL-2-luciferase RLU, Jurkat + CHO/OKT3 aAPC (no PD-L1), 16.7 nM amounted to 412 RLU; the IL-2-luciferase RLU, Jurkat + CHO/OKT3 aAPC (no PD-L1), 50 nM was found to be 420 RLU; the IL-2 release, primary T cells; K562/OKT3 (No PD-L1); 1 nM was 8050. In test [1], the IL-2 release, primary T cells; K562/OKT3 (No PD-L1); 10 nM worked out at 7020; the IL-2 release, primary T cells; K562/OKT3 (No PD-L1); 100 nM is 6480; the RLU, Jurkat/IL2 reporter; K562/OKT3 aAPC, FcR Dependent Cross-Linking (No PD-L1); 0.6 nM came out at 1340 RLU; the RLU, Jurkat/IL2 reporter; K562/OKT3 aAPC, FcR Dependent Cross-Linking (No PD-L1); 1.9 nM was found to be 1270 RLU. In test [1], this substance had an RLU, Jurkat/IL2 reporter; K562/OKT3 aAPC, FcR Dependent Cross-Linking (No PD-L1); 5.6 nM of 1480 RLU; an RLU, Jurkat/IL2 reporter; K562/OKT3 aAPC, FcR Dependent Cross-Linking (No PD-L1); 16.7 nM of 1730 RLU; an RLU, Jurkat/IL2 reporter; K562/OKT3 aAPC, FcR Dependent Cross-Linking (No PD-L1); 50 nM of 2200 RLU. In addition, in test [2], the RLU, Jurkat/IL2 reporter; K562/OKT3/PD-L1 aAPC, Combination of FcR and/or PD-L1 Dependent Cross-Linking; 0.6 nM was determined as 692 RLU; the RLU, Jurkat/IL2 reporter; K562/OKT3/PD-L1 aAPC, Combination of FcR and/or PD-L1 Dependent Cross-Linking; 1.9 nM was 705 RLU; the RLU, Jurkat/IL2 reporter; K562/OKT3/PD-L1 aAPC, Combination of FcR and/or PD-L1 Dependent Cross-Linking; 5.6 nM amounted to 847 RLU; the RLU, Jurkat/IL2 reporter; K562/OKT3/PD-L1 aAPC, Combination of FcR and/or PD-L1 Dependent Cross-Linking; 16.7 nM was determined as 875 RLU. Besides, in test [2], the RLU, Jurkat/IL2 reporter; K562/OKT3/PD-L1 aAPC, Combination of FcR and/or PD-L1 Dependent Cross-Linking; 50 nM stood at 1520 RLU.

In test [1], WT CD80 IgV-Fc (effector) (Fc fusion) had an IL-2 release, primary T cells; K562/OKT3 (No PD-L1); 1 nM of 7170; an IL-2 release, primary T cells; K562/OKT3 (No PD-L1); 10 nM of 7120; an IL-2 release, primary T cells; K562/OKT3 (No PD-L1); 100 nM of 6200; an RLU, Jurkat/IL2 reporter; K562/OKT3 aAPC, FcR Dependent Cross-Linking (No PD-L1); 0.6 nM of 1410 RLU. In test [1], this substance registered an RLU, Jurkat/IL2 reporter; K562/OKT3 aAPC, FcR Dependent Cross-Linking (No PD-L1); 1.9 nM of 1350 RLU; an RLU, Jurkat/IL2 reporter; K562/OKT3 aAPC, FcR Dependent Cross-Linking (No PD-L1); 5.6 nM of 1310 RLU; an RLU, Jurkat/IL2 reporter; K562/OKT3 aAPC, FcR Dependent Cross-Linking (No PD-L1); 16.7 nM of 1210 RLU; an RLU, Jurkat/IL2 reporter; K562/OKT3 aAPC, FcR Dependent Cross-Linking (No PD-L1); 50 nM of 1250 RLU. Besides, in test [2], the RLU, Jurkat/IL2 reporter; K562/OKT3/PD-L1 aAPC, Combination of FcR and/or PD-L1 Dependent Cross-Linking; 0.6 nM worked out at 662 RLU; the RLU, Jurkat/IL2 reporter; K562/OKT3/PD-L1 aAPC, Combination of FcR and/or PD-L1 Dependent Cross-Linking; 1.9 nM was 674 RLU; the RLU, Jurkat/IL2 reporter; K562/OKT3/PD-L1 aAPC, Combination of FcR and/or PD-L1 Dependent Cross-Linking; 5.6 nM was 697 RLU; the RLU, Jurkat/IL2 reporter; K562/OKT3/PD-L1 aAPC, Combination of FcR and/or PD-L1 Dependent Cross-Linking; 16.7 nM was 673 RLU. For the same substance, in test [2], the RLU, Jurkat/IL2 reporter; K562/OKT3/PD-L1 aAPC, Combination of FcR and/or PD-L1 Dependent Cross-Linking; 50 nM was 663 RLU.

Take WT CD80 IgV-Fc (inert) (Fc fusion): in test [1], the IL-2-luciferase RLU, Jurkat + CHO/OKT3/PD-L1 aAPC, 0.6 nM was determined as 458 RLU; the IL-2-luciferase RLU, Jurkat + CHO/OKT3/PD-L1 aAPC, 1.9 nM is 486 RLU; the IL-2-luciferase RLU, Jurkat + CHO/OKT3/PD-L1 aAPC, 5.6 nM amounted to 511 RLU; the IL-2-luciferase RLU, Jurkat + CHO/OKT3/PD-L1 aAPC, 50 nM was determined as 483 RLU. Also, in test [1], the IL-2-luciferase RLU, Jurkat + CHO/OKT3 aAPC (no PD-L1), 5.6 nM amounted to 450 RLU; the IL-2-luciferase RLU, Jurkat + CHO/OKT3 aAPC (no PD-L1), 16.7 nM came to 444 RLU; the IL-2-luciferase RLU, Jurkat + CHO/OKT3 aAPC (no PD-L1), 50 nM worked out at 479 RLU; the IL-2-luciferase RLU, Jurkat + K562/OKT3/PD-L1 aAPC, 50 nM is 566 RLU. The substance also showed an IL-2 release, primary T cells; K562/OKT3/PD-L1; 100 nM in test [2] of 52.

In test [1], “variant CD80 IgV-Fc (effector) A26E/E35D/M47L/L85Q (Fc fusion)” gave an IL-2 release, primary T cells; K562/OKT3 (No PD-L1); 1 nM of 6850; an IL-2 release, primary T cells; K562/OKT3 (No PD-L1); 10 nM of 8320; an RLU, Jurkat/IL2 reporter; K562/OKT3 aAPC, FcR Dependent Cross-Linking (No PD-L1); 0.6 nM of 1350 RLU; an RLU, Jurkat/IL2 reporter; K562/OKT3 aAPC, FcR Dependent Cross-Linking (No PD-L1); 1.9 nM of 1380 RLU. In test [1], this substance displayed an RLU, Jurkat/IL2 reporter; K562/OKT3 aAPC, FcR Dependent Cross-Linking (No PD-L1); 5.6 nM of 1420 RLU; an RLU, Jurkat/IL2 reporter; K562/OKT3 aAPC, FcR Dependent Cross-Linking (No PD-L1); 16.7 nM of 1370 RLU; an RLU, Jurkat/IL2 reporter; K562/OKT3 aAPC, FcR Dependent Cross-Linking (No PD-L1); 50 nM of 1330 RLU. Also, in test [2], the RLU, Jurkat/IL2 reporter; K562/OKT3/PD-L1 aAPC, Combination of FcR and/or PD-L1 Dependent Cross-Linking; 0.6 nM is 1230 RLU; the RLU, Jurkat/IL2 reporter; K562/OKT3/PD-L1 aAPC, Combination of FcR and/or PD-L1 Dependent Cross-Linking; 1.9 nM amounted to 1590 RLU; the RLU, Jurkat/IL2 reporter; K562/OKT3/PD-L1 aAPC, Combination of FcR and/or PD-L1 Dependent Cross-Linking; 5.6 nM amounted to 2000 RLU; the RLU, Jurkat/IL2 reporter; K562/OKT3/PD-L1 aAPC, Combination of FcR and/or PD-L1 Dependent Cross-Linking; 16.7 nM is 2500 RLU. In addition, the RLU, Jurkat/IL2 reporter; K562/OKT3/PD-L1 aAPC, Combination of FcR and/or PD-L1 Dependent Cross-Linking; 50 nM in test [2] stood at 2640 RLU.
